According to the supplement of paper PMC10724198:
± gives the standard deviation of the averaged measurements.
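Further: PSI is a weighted mean of sequencing reads over stability bins, variants kept only with over 10 reads, mCherry proximal and sfGFP distal, peptide attached via GGGS linker.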

Each sequence was assayed on Saccharomyces cerevisiae (assay: protein stability index of tFT-peptide fusion (C-terminal peptide) (PSI (0-1 scale)); higher = more stable (slower turnover)). Conditions: genetic background: das1 deletion; temperature: 37 C.
Method: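 MPS profiling in S. cerevisiae of the tFT-X12 degron library: putative degron peptides plus stable controls, 12 aa, fused to the C-terminus of a sfGFP-mCherry timer. Cells are FACS-sorted into 8 mCherry/sfGFP bins and deep-sequenced. PSI runs from 0 (unstable) to 1 (stable). Backgrounds are wild type, das1Δ and doa10Δ at 30 °C, and wild type, das1Δ, cdc34-1 and cdc53-1 at 37 °C; 2-3 technical replicates each.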
For TSFLHLFVAAII, the protein stability index was 0.5932 ± 0.0013. TSLPPSPPPSPT was tested, and the protein stability index was 0.563 ± 0.0085. For TSPYTSFAHTSL, the protein stability index was 0.739 ± 0.0074. For VAFGVASGWCWF, the protein stability index was 0.848 ± 0.0032. With VAFILVVCKGIG the protein stability index was 0.327 ± 0.0048. Sequence VAWWVCIRSCCG has a protein stability index of 0.577 ± 0.012. For VCCSSVSLLVFA, the protein stability index was 0.44 ± 0.0076. With VCGYGFAVPCYT the protein stability index was 0.5832 ± 0.0026. VCILLVAWCLMG was tested, and the protein stability index was 0.384 ± 0.0058. With VCLLGWGVRLVS the protein stability index was 0.72374 ± 7.5e-05. For VCMHIVLLAASP, the protein stability index was 0.284 ± 0.014. With VCSRWFFVFVVR the protein stability index was 0.523 ± 0.014. VCVFFRLCIVWY gave a protein stability index of 0.171 ± 0.0065. Work on VDGVSFFVVLLC yielded a protein stability index of 0.537 ± 0.0077. Sequence VDSTCLLITLLA has a protein stability index of 0.506 ± 0.0053. Sequence VEIKSKRMLVVI has a protein stability index of 0.578 ± 0.0069. VEQLLYIKATNV was tested, and the protein stability index was 0.7288 ± 0.0038. In the case of VFDFVFHLRFVV, the protein stability index is reported as 0.468 ± 0.0082. For VFFCLFVLFLSG, the protein stability index was 0.437 ± 0.0073. VFFGLYLVTFTS showed a protein stability index of 0.379 ± 0.013. VFFHFFVCWRFV was tested, and the protein stability index was 0.3646 ± 0.00069. Work on VFFLLSVYMVMM yielded a protein stability index of 0.3338 ± 0.0028. Work on VFFTSLPPLLRA yielded a protein stability index of 0.51 ± 0.01. Sequence VFIVVEFRLSLY has a protein stability index of 0.3023 ± 0.0029. Sequence VFKLGWVLCVLL has a protein stability index of 0.389 ± 0.011. Work on VFLACSMTGGDA yielded a protein stability index of 0.27 ± 0.0086. VFLDCCLRVFVD showed a protein stability index of 0.424 ± 0.014. VFLLFFFGLFVF was tested, and the protein stability index was 0.418 ± 0.025. Work on VFLPVMVFFTFS yielded a protein stability index of 0.49592 ± 0.00031. VFRLLLFFVFVF was tested, and the protein stability index was 0.3848 ± 0.0031. VGAVGVCILFVW showed a protein stability index of 0.424 ± 0.0061. VGFYGRWVCVAC gave a protein stability index of 0.435 ± 0.0074. For VGGSRGARLGVG, the protein stability index was 0.426 ± 0.0085. VGRANLSVIRKV showed a protein stability index of 0.715 ± 0.019. Sequence VGSSSGRLLYLC has a protein stability index of 0.7466 ± 0.0065. Sequence VGTIVLTCIEVN has a protein stability index of 0.22 ± 0.0081. For VGVVLWVWGLGD, the protein stability index was 0.636 ± 0.022. For VGVVVVGDVLVW, the protein stability index was 0.423 ± 0.0065. For VIQNKKKNKITS, the protein stability index was 0.736 ± 0.0094. VIYYVRVGLVLS was tested, and the protein stability index was 0.167 ± 0.0084. For VLARGFHCMYFC, the protein stability index was 0.75484 ± 0.00037. VLGPRFCFVCHA showed a protein stability index of 0.6194 ± 0.0023. For VLLSSSLVFLIS, the protein stability index was 0.631 ± 0.018. Sequence VLVCYFCRYISH has a protein stability index of 0.573 ± 0.011. Sequence VLVTFFIRSGVS has a protein stability index of 0.536 ± 0.018. In the case of VMFCRFPLRFGC, the protein stability index is reported as 0.7445 ± 0.0057. In the case of VPTRRRGNRRPA, the protein stability index is reported as 0.725 ± 0.018. In the case of VQVLVAIMDGRM, the protein stability index is reported as 0.387 ± 0.004. VRFLSLNVLFFC was tested, and the protein stability index was 0.628 ± 0.028. VRGWLAYLRWII showed a protein stability index of 0.724 ± 0.0083. Sequence VSFGELGVEVVG has a protein stability index of 0.736 ± 0.017. VSGEWSFLVRVQ showed a protein stability index of 0.61 ± 0.027. VSISLCVLCPVF gave a protein stability index of 0.356 ± 0.0076. Sequence VSLSWFSCCFVG has a protein stability index of 0.489 ± 0.023. VSVFSLFLFLRV showed a protein stability index of 0.413 ± 0.045. Work on VSVVLKTQRVVC yielded a protein stability index of 0.60289 ± 0.00044. In the case of VTFWISLVYVLV, the protein stability index is reported as 0.35 ± 0.0028. VTVWVFVFLRGL was tested, and the protein stability index was 0.454 ± 0.029. In the case of VVACCVVFWVLP, the protein stability index is reported as 0.481 ± 0.016. VVCLCEYRLHIF was tested, and the protein stability index was 0.399 ± 0.011.

Same assay, conditions: genetic background: doa10 deletion; temperature: 30 C
For TSFLHLFVAAII, the protein stability index was 0.415 ± 0.009. TSLPPSPPPSPT showed a protein stability index of 0.373 ± 0.014. With TSPYTSFAHTSL the protein stability index was 0.662 ± 0.017. VAFGVASGWCWF showed a protein stability index of 0.373 ± 0.0093. VAFILVVCKGIG gave a protein stability index of 0.122 ± 0.015. Sequence VAWWVCIRSCCG has a protein stability index of 0.353 ± 0.012. For VCCSSVSLLVFA, the protein stability index was 0.225 ± 0.0042. VCGYGFAVPCYT gave a protein stability index of 0.327 ± 0.012. Work on VCILLVAWCLMG yielded a protein stability index of 0.108 ± 0.02. VCLLGWGVRLVS gave a protein stability index of 0.321 ± 0.0052. Work on VCMHIVLLAASP yielded a protein stability index of 0.201 ± 0.028. VCSRWFFVFVVR showed a protein stability index of 0.409 ± 0.014. For VCVFFRLCIVWY, the protein stability index was 0.115 ± 0.013. Sequence VDGVSFFVVLLC has a protein stability index of 0.189 ± 0.0091. VDSTCLLITLLA showed a protein stability index of 0.245 ± 0.0068. VEIKSKRMLVVI gave a protein stability index of 0.287 ± 0.013. VEQLLYIKATNV was tested, and the protein stability index was 0.238 ± 0.029. For VFDFVFHLRFVV, the protein stability index was 0.091 ± 0.019. In the case of VFFCLFVLFLSG, the protein stability index is reported as 0.251 ± 0.0072. For VFFGLYLVTFTS, the protein stability index was 0.196 ± 0.015. Sequence VFFHFFVCWRFV has a protein stability index of 0.0556 ± 0.014. With VFFLLSVYMVMM the protein stability index was 0.182 ± 0.03. VFFTSLPPLLRA gave a protein stability index of 0.341 ± 0.006. In the case of VFIVVEFRLSLY, the protein stability index is reported as 0.1496 ± 0.0014. Work on VFKLGWVLCVLL yielded a protein stability index of 0.152 ± 0.0011. VFLACSMTGGDA gave a protein stability index of 0.413 ± 0.021. VFLDCCLRVFVD was tested, and the protein stability index was 0.188 ± 0.014. For VFLLFFFGLFVF, the protein stability index was 0.356 ± 0.043. VFLPVMVFFTFS showed a protein stability index of 0.255 ± 0.0082. Sequence VFRLLLFFVFVF has a protein stability index of 0.279 ± 0.0075. Work on VGAVGVCILFVW yielded a protein stability index of 0.195 ± 0.016. Work on VGFYGRWVCVAC yielded a protein stability index of 0.236 ± 0.011. VGGSRGARLGVG gave a protein stability index of 0.3945 ± 0.00071. VGRANLSVIRKV showed a protein stability index of 0.243 ± 0.011. Sequence VGSSSGRLLYLC has a protein stability index of 0.2656 ± 0.002. VGTIVLTCIEVN gave a protein stability index of 0.1519 ± 0.00081. In the case of VGVVLWVWGLGD, the protein stability index is reported as 0.423 ± 0.0063. In the case of VGVVVVGDVLVW, the protein stability index is reported as 0.2321 ± 0.0019. With VIQNKKKNKITS the protein stability index was 0.177 ± 0.021. VIYYVRVGLVLS gave a protein stability index of 0.108 ± 0.016. For VLARGFHCMYFC, the protein stability index was 0.444 ± 0.022. For VLGPRFCFVCHA, the protein stability index was 0.223 ± 0.0071. VLLSSSLVFLIS gave a protein stability index of 0.385 ± 0.016. VLVCYFCRYISH gave a protein stability index of 0.365 ± 0.0057. For VLVTFFIRSGVS, the protein stability index was 0.311 ± 0.01. VMFCRFPLRFGC was tested, and the protein stability index was 0.3191 ± 0.0022. VPTRRRGNRRPA was tested, and the protein stability index was 0.641 ± 0.011. For VQVLVAIMDGRM, the protein stability index was 0.38 ± 0.039. Work on VRFLSLNVLFFC yielded a protein stability index of 0.222 ± 0.0066. With VRGWLAYLRWII the protein stability index was 0.195 ± 0.012. For VSFGELGVEVVG, the protein stability index was 0.538 ± 0.014. For VSGEWSFLVRVQ, the protein stability index was 0.392 ± 0.0066. VSISLCVLCPVF was tested, and the protein stability index was 0.2408 ± 0.0018. For VSLSWFSCCFVG, the protein stability index was 0.376 ± 0.026. VSVFSLFLFLRV gave a protein stability index of 0.531 ± 0.031. VSVVLKTQRVVC showed a protein stability index of 0.3 ± 0.0041. In the case of VTFWISLVYVLV, the protein stability index is reported as 0.148 ± 0.0088. In the case of VTVWVFVFLRGL, the protein stability index is reported as 0.294 ± 0.0043. VVACCVVFWVLP gave a protein stability index of 0.231 ± 0.011. For VVCLCEYRLHIF, the protein stability index was 0.0658 ± 0.017.
